This note sets out measurements from the nanobody polyreactivity screen of Harvey et al. (2022).

The data set in a line: yeast display, Sf9 membrane polyspecificity reagent, FACS + sequencing; frameworks hold sequencing errors. An outline of the steps: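 Polyreactivity labels are assigned by the sorting gate from which each nanobody was recovered. The gates were low and high (top ~1%), set on anti-HA fluorescence for expression and streptavidin fluorescence for reagent binding. Before sorting, galactose-induced (36–48 hours) yeast display cells were stained for 1 hour at 4 °C with 10% biotinylated, detergent-solubilized Sf9 membrane reagent.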
In the case of “QVQLVESGGGLVQAGGSLRLSCAASGSTFPSYAMGWYRQAPGKERELVAAINSGGGTNYADSVKGRFTISRDNAKNTVYLQMNSLKPEDTAVYYCAKSRYDYNKTEGGYWGQGTQVTVSS”, the “polyreactivity (PSR sort gate)” value was “low polyreactivity”.

As for “QVQLVESGGGLVQAGGSLRLSCAASGSTFPSYTMGWYRLAPGKERELVAAITLSGGSTYYADSVKGRFTISRDKAKNTVSLQMNSQKPEDTAVYYCAAYSQRGYDYWGQGTQVTVSS”, the “polyreactivity (PSR sort gate)” value was “low polyreactivity”.

As to “QVQLVESGGGLVQAGGSLRLSCAASGSTFPTNAMGWYRQAPGKERELVATITSTGSTKYADSVKGRFTISRDNAKNTVYLQMNSLKPEDTAVYYCAADEYAYASRFYWALIHDYWGQGTQVTVSS”, the “polyreactivity (PSR sort gate)” value is listed as “low polyreactivity”.

As for “QVQLVESGGGLVQAGGSLRLSCAASGSTFPTYAMGWYRQAPGKERELVAAISRSGGRTYYADSVKGRFTISRDNAKNTVYLQMNSLKPEDTAVYYCAAQYRLSGGYNYDYWGQGTQVTVSS”, the “polyreactivity (PSR sort gate)” value is “high polyreactivity”.

As for “QVQLVESGGGLVQAGGSLRLSCAASGSTFPVNAMGWYRQAPGKERELVATIRWTGGGTYYADSVKGRFTISRDNAKNTVYLQMNSLKPEDTAVYYCAADPPWEWSDYGYDYWGQGTQVTVSS”, the “polyreactivity (PSR sort gate)” value is “low polyreactivity”.

For the sequence “QVQLVESGGGLVQAGGSLRLSCAASGSTFPVNTMGWYRQAPGKERELVAAISSDDNTNYADSVKGRFTISRDNAKNTVYLQMNSLKPEDTEVYYCAVKGHPAYVEVPPRYAWEFDYWGQGTQVTVSS”, the “polyreactivity (PSR sort gate)” value was “low polyreactivity”.

For the sequence “QVQLVESGGGLVQAGGSLRLSCAASGSTFPVYVMGWYRPAPGKERELVAAITRSGGSTYYADSVKGRFTISRDNAKNTVYLQMNSLKPEDTAVYYCNKDVWDGYDWPEFDYWGQGTQVTVSS”, the “polyreactivity (PSR sort gate)” value is “low polyreactivity”.

On to “QVQLVESGGGLVQAGGSLRLSCAASGSTFPWYAMGWYRQAPGKEREVVAAISSSGGSTYYADSVKGRFTISRDKAKNTVYLQMNSLKPEDTAVYYCNAQHPGYYWGYDYWGQGTQVTVSS”, for which the “polyreactivity (PSR sort gate)” value is reported as “high polyreactivity”.

Regarding “QVQLVESGGGLVQAGGSLRLSCAASGSTFPYNAMGWYRQAPGKERELVAAITWRAGRTYYADSVKGRFTISRDNAKITVYLHMNSLKAEDTAVYYCAKSYQRGVNHYEYWGQGTQVTVSS”, the “polyreactivity (PSR sort gate)” value is recorded as “high polyreactivity”.

“QVQLVESGGGLVQAGGSLRLSCAASGSTFPYNAMGWYRQAPGKERELVASISRRGGSTYYADSVKGRFTISRDNAKNTVYLQMNSLKPEDTAVYYCNASGGPYRYYYWGQGTQVTVSS”: the “polyreactivity (PSR sort gate)” value is “low polyreactivity”.

“QVQLVESGGGLVQAGGSLRLSCAASGSTFPYNAMGWYRQAPGKEREMVAAITYSGGSTYYADSVKGRFTISRDNAKNTVYLQMNSLKPEDTAVYYCNADDSTTYDYWGQGTQVTVSS”: the “polyreactivity (PSR sort gate)” value was “low polyreactivity”.

Turning to “QVQLVESGGGLVQAGGSLRLSCAASGSTFPYNTMGWYRQAPGKEREFVAAITGDGGTTYYADSVKGRFTISRDNAKNTVYLQMYSLKPEDTAVYYSAVPYPAEGYGGDYWGQGTQVTVSS”, the “polyreactivity (PSR sort gate)” value is “low polyreactivity”.

With “QVQLVESGGGLVQAGGSLRLSCAASGSTFPYPYTMGWYREAPGKERELVAVISRTGGSTFYADSVKRRFTISRDNAKNTVYLQMNSLKPEDTAVYYCAARRDGWTFWKYDYWGQGTQVTVSS”, the “polyreactivity (PSR sort gate)” value is “high polyreactivity”.

As to “QVQLVESGGGLVQAGGSLRLSCAASGSTFPYVMGWYTPAPGKERELVAAISQRTGSTYYADSVKGRFTISRDNAKNSVYLQMNILKPEDTAVYYCAKPVYLSPSRYDYWGQGTQVTVSS”, the “polyreactivity (PSR sort gate)” value is given as “high polyreactivity”.

On to “QVQLVESGGGLVQAGGSLRLSCAASGSTFPYYAMGWYRQAPGKERELVAAISKSGGSTYYADSVKGRFTISRDNAKNTVYLQMNSLKPEDTAVYYCAAGPRYRYYSGWYDYWGQGTQVTVSS”, for which the “polyreactivity (PSR sort gate)” value is listed as “high polyreactivity”.

For “QVQLVESGGGLVQAGGSLRLSCAASGSTFPYYAMGWYRQAPGKERELVAAISSSGGSTYYADSVKGRFTISRDNANNTVYLQMNSLKPEDTAVYYCATSSLYRYWHRYDYWGQGTQVTVSS”, the “polyreactivity (PSR sort gate)” value is reported as “high polyreactivity”.

For “QVQLVESGGGLVQAGGSLRLSCAASGSTFPYYAMGWYRQAPGKERELVAAISSSGSRTYYADSVKGRFTISRDNAKNTVYLQMNSLKPEDTAVYYCAADNAAQPYPAGMDYWGQGTQVTVSS”, the “polyreactivity (PSR sort gate)” value is given as “low polyreactivity”.

For “QVQLVESGGGLVQAGGSLRLSCAASGSTFPYYAMGWYRQAPGKERELVAAITSGGSTNYADSVKGRFTISRDNAKNTVYLQMNSLKPEDTAVYYCNAEWRRRYTYLRRVYYGFDYWGQGTQVTVSS”, the “polyreactivity (PSR sort gate)” value is on record as “high polyreactivity”.

Turning to “QVQLVESGGGLVQAGGSLRLSCAASGSTFQANTMGWYRQAPGKERELVAAISIRGANTYYADSVKGRFTISRDNAKNTVYLQMNSLKPEDTAVYYCNAALRTRRGDYDYWGQGTQVTVSS”, the “polyreactivity (PSR sort gate)” value is “high polyreactivity”.

Take “QVQLVESGGGLVQAGGSLRLSCAASGSTFQFNAMGWYRPAPGKEREFVAAITSSAGRTYYADSVKGRFTISRDNAKKTVYLQMNSLKPEDTAVYYCATGPYSPPSAGPEYDYWGQGTQVTVSS”: the “polyreactivity (PSR sort gate)” value is on record as “high polyreactivity”.

Turning to “QVQLVESGGGLVQAGGSLRLSCAASGSTFQHYAMGWYRQAPGKERELVAAITHTGGSTYYADSVKGRFTISRDNAKNTVYLQMNSLKPEDTAVYYCATVGRRYGYPGYYWGQGTQVTVSS”, the “polyreactivity (PSR sort gate)” value is “low polyreactivity”.

In the case of “QVQLVESGGGLVQAGGSLRLSCAASGSTFQPNAMGWYRQAPGKERELVAISSGDDTYYADSVKGRFTISRDKAKNTVYFQMNSLIPEDSAVYYCAAEYSFIYYWGQGTQVTVSS”, the “polyreactivity (PSR sort gate)” value is given as “low polyreactivity”.

Take “QVQLVESGGGLVQAGGSLRLSCAASGSTFQRYAKGWYRQAPGKEWELVAGITGSVGRTYYADSVKGRFTISRDNAKNTVDLQMNSLKPQATAVSYCAADGRTWLYYGTRRDYWGQGTQVTVSS”: the “polyreactivity (PSR sort gate)” value was “high polyreactivity”.

Turning to “QVQLVESGGGLVQAGGSLRLSCAASGSTFQRYAMGWYRQAPGKERELVAAITWSGGSTYYADSVKGRFTISRDNAKNTGYLQMNSLKPEDTAVYYGAARSVRYGFGYWGQGTQVTVSS”, the “polyreactivity (PSR sort gate)” value is recorded as “high polyreactivity”.

“QVQLVESGGGLVQAGGSLRLSCAASGSTFQSYAMGWYRQAPGKERELVAAISARGGTTYYADSVKGRFTISRDNAKNTVYLQMNSLKPEDTAVYYCAVDRAFRAQNYHEYDYWGQGTQVTVSS”: the “polyreactivity (PSR sort gate)” value was “low polyreactivity”.

In the case of “QVQLVESGGGLVQAGGSLRLSCAASGSTFQSYAMGWYRQAPGKERELVARIRNSGGSTYYADSVKGRFTISRDNAKNTVYLQMNSLKPEDTAVYYCNARYVSRYLTYQYDYWGQGTQVTVSS”, the “polyreactivity (PSR sort gate)” value is on record as “high polyreactivity”.

“QVQLVESGGGLVQAGGSLRLSCAASGSTFQTDTMGWYRQAPGKERELVASITWRGGRTYYADSVKGRFTISRDNAKNTVYLQMNSLKPEDTAVYYCAAVTFSYDGYDYWGQGTQVTVSS”: the “polyreactivity (PSR sort gate)” value is listed as “low polyreactivity”.

On to “QVQLVESGGGLVQAGGSLRLSCAASGSTFQTYAMGWSRQAPGKERELVAAITWRGGSTYYADSVKGRFTISRDNAKNTVYLQMNSLKPDDTAVYYCAAKWNGSHDHRAAYESWGQGTQVTVSS”, for which the “polyreactivity (PSR sort gate)” value is on record as “low polyreactivity”.

On to “QVQLVESGGGLVQAGGSLRLSCAASGSTFQTYAMGWYRQAPGKERELVAAITSGGSTNYADSVNGRFTISRDNAKNTVYLQMNSLKPEDTAVYYCAGRQIYQTSEHRLQYDYWGQGTQVTVSS”, for which the “polyreactivity (PSR sort gate)” value is “low polyreactivity”.

As for “QVQLVESGGGLVQAGGSLRLSCAASGSTFQVYGMGWYRQAPGKERELVAAISRSGGRTYYADSVKGRFTISRDNAKNTVYLQMNSLKPEDTAVYYCNAPISYYDEYYYWGQGTQVTVSS”, the “polyreactivity (PSR sort gate)” value was “high polyreactivity”.

As for “QVQLVESGGGLVQAGGSLRLSCAASGSTFQWYAMGWNIQAPGKERELVAGITRTGSTYYADSVKGRFTISRDNAKNTVYLQMNSLKPEDTAVYYCAAKWHTASGKYYYWGQVTQVTVSS”, the “polyreactivity (PSR sort gate)” value is on record as “high polyreactivity”.

As for “QVQLVESGGGLVQAGGSLRLSCAASGSTFQWYAMGWYRQAPGKERELVAAISNGVSTNYADSVKGRFTISRDNAKNTVYLHMNSLKPEDTAVYYCAADAYPYYQSYYPFEYLGQGTQVTVSS”, the “polyreactivity (PSR sort gate)” value is listed as “low polyreactivity”.

In the case of “QVQLVESGGGLVQAGGSLRLSCAASGSTFQYNVMGWYRQAPGKERELVAAITNRDGSTYYADSVKGRFTISRDNAKNTVYLQMNSLKPEDTAVYYCAAPVWLWADRYDSWGQGTQVTVSS”, the “polyreactivity (PSR sort gate)” value is given as “low polyreactivity”.

As for “QVQLVESGGGLVQAGGSLRLSCAASGSTFQYYAMGGYRQAPGKERELVAGITWRDGNTYYADTVKGRFTISRDNANNTVYLQMNSLKPEDTAVYYCAARRYFVIYYPYDYWGQGTQVTVSS”, the “polyreactivity (PSR sort gate)” value is on record as “low polyreactivity”.

As to “QVQLVESGGGLVQAGGSLRLSCAASGSTFQYYAMGWYRQAPGKDRELVAAIRTGGSTNYAHSVKGRFTISRDNAKNTVYLQMNSLKPDDNAVYYCAKRSLRSYRMNYWGQGTQVTVSS”, the “polyreactivity (PSR sort gate)” value is “high polyreactivity”.

Regarding “QVQLVESGGGLVQAGGSLRLSCAASGSTFQYYAMGWYRQAPGKERELVAAISYSSGTTYYADSVKGRFTISRDNAKNTVYLQMNSLKPEDTAVYYCARPARYSYPTSTAFDYWGQGTQVTVSS”, the “polyreactivity (PSR sort gate)” value is given as “low polyreactivity”.

Take “QVQLVESGGGLVQAGGSLRLSCAASGSTFQYYTMGWYRQAPGKERELVAAITRSGGRTYYADSVKGRFTISRDNAKNTVYLQMNSLKPEDTAVYYCAALDSRYSGDDYDSWGQGTQVTVSS”: the “polyreactivity (PSR sort gate)” value is given as “high polyreactivity”.

Take “QVQLVESGGGLVQAGGSLRLSCAASGSTFRANAMGRYRQAPGKERELVAAINSGGSTYYADSVKGRFTISRDNAKNTVYLQMNSLKPEDTAVYYCNKRYWRSDYWGQGTQVTVSS”: the “polyreactivity (PSR sort gate)” value is “high polyreactivity”.

Regarding “QVQLVESGGGLVQAGGSLRLSCAASGSTFRANAMGWYRQAPGKESELVADIRFSDGSTYYADSVKGRFTISRDNAKNTVYLQMNSLKPEDTAVYYCAARPSGRGYYLLGYWGQGTQVTVSS”, the “polyreactivity (PSR sort gate)” value was “low polyreactivity”.

Take “QVQLVESGGGLVQAGGSLRLSCAASGSTFRANVMGWYRQAPGKEMELVAAITSGGGSTYYADSVKGRFTISRDNAKNTVYLQMNSLKPEDTAVYYCATRPIQYRRGYDYWGQGTQVTVSS”: the “polyreactivity (PSR sort gate)” value is recorded as “high polyreactivity”.

For the sequence “QVQLVESGGGLVQAGGSLRLSCAASGSTFRAYAMGWYRQAPGKEREFVASISWSGGRTYYADSVKGRFTISRDNAKNTVYLQMNSLKPEDTAVYYCAVDLSTHDYDYWGQGTQVTVSS”, the “polyreactivity (PSR sort gate)” value was “low polyreactivity”.
